Experimental data as given in patent publication US20220332804A1 (CSL INNOVATION, published 2022).

Columns and labels:
Test in all cases: SPR, mAb captured, C2 mutant analyte;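 note: Anti-C2 mAbs captured on goat anti-human IgG Biacore CM5 chips, alanine or serine C2 surface mutants flowed over at 37 °C, double-referenced sensorgrams fitted to a 1:1 binding model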
[1] = target: T1, human C2 E267A (human, UniProt P06681 21-752)
T1 sequence: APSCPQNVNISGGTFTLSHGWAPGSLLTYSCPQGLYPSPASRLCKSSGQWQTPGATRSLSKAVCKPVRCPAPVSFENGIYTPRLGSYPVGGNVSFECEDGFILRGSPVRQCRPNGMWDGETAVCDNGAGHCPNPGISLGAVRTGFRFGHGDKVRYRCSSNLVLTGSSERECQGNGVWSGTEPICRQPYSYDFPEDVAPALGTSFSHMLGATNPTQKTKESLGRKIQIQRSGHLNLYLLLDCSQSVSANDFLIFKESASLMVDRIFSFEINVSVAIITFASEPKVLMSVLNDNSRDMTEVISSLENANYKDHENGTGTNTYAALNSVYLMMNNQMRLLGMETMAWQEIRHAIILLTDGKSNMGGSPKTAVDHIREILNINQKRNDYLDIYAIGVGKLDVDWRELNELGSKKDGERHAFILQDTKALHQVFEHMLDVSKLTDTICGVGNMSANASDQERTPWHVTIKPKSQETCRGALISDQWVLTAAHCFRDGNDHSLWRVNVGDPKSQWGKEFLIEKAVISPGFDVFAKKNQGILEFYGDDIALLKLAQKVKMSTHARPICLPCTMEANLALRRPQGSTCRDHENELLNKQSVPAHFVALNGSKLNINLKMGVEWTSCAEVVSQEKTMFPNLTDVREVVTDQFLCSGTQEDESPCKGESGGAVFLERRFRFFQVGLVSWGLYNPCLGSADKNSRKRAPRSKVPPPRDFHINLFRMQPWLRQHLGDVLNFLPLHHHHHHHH

[2] = target: T2, human C2 K415A (human, UniProt P06681 21-752)
T2 sequence: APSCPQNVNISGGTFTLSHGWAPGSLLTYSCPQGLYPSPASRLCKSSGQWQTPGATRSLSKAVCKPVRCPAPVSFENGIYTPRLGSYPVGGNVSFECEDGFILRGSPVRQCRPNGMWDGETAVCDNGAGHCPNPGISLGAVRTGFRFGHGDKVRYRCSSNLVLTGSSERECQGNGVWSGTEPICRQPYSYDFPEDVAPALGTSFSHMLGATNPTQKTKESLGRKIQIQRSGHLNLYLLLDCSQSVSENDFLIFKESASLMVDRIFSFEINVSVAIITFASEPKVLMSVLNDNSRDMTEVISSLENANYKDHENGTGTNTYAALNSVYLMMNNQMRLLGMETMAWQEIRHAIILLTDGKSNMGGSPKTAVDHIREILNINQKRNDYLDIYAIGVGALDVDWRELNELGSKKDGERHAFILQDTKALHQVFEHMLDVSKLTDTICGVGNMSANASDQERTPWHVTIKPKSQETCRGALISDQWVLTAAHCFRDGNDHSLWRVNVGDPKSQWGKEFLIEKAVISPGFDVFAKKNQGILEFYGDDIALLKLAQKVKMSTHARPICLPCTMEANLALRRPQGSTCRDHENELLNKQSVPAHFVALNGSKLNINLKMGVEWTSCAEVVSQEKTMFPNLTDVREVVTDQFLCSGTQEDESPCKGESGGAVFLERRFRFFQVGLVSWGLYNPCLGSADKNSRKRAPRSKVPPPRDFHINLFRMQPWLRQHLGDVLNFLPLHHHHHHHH

[3] = target: T3, human C2 D441A (human, UniProt P06681 21-752)
T3 sequence: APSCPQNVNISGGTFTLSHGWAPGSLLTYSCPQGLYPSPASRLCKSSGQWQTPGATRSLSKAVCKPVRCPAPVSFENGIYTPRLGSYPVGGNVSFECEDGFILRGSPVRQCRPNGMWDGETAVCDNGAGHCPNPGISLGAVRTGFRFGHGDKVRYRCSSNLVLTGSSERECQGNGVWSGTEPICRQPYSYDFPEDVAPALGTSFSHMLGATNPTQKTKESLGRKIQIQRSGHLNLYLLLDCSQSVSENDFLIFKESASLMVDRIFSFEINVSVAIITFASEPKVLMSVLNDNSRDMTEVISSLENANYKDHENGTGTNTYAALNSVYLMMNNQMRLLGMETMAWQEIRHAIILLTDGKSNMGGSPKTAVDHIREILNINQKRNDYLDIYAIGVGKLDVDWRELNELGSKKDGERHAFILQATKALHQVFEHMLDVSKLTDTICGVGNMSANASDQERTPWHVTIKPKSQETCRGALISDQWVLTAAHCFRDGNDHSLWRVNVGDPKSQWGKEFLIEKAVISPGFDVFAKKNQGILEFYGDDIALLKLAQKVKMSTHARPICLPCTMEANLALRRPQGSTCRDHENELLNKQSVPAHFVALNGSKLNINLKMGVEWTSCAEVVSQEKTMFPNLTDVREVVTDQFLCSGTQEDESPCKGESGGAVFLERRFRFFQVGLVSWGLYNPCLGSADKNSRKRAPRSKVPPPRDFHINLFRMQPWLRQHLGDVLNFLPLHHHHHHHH

[4] = target: T4, human C2 D417A (human, UniProt P06681 21-752)
T4 sequence: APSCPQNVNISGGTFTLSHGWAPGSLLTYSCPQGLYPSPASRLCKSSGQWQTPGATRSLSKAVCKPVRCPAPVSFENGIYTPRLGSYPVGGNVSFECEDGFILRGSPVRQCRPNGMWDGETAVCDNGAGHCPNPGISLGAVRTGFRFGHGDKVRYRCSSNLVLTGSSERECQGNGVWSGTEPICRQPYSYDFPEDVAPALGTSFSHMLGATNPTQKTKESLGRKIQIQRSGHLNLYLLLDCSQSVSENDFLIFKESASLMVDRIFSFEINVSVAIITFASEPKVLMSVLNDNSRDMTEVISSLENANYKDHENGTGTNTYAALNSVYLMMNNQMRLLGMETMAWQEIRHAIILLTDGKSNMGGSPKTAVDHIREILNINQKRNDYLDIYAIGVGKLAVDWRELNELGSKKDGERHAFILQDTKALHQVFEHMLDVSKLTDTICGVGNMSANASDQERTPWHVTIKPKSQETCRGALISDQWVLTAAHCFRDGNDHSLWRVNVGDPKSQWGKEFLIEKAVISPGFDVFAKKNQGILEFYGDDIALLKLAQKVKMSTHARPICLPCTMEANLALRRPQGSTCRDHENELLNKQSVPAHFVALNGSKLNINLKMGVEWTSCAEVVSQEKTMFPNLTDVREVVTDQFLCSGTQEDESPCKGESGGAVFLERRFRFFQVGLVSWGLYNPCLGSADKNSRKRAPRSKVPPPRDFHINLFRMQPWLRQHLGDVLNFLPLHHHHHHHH

- Kd [1]: 26.2 nM
- Kd [2]: 46 nM
- Kd [3]: 51.5 nM
- Kd [4]: 56.4 nM
B1: RF16-214 (antibody, V domains shown)
VH: EVQLLESGGGLVQPGGSLRLSCAASGFTFSWYQMMWVRQAPGKGLEWVSRIYPSGGGTAYADSVKGRFTISRDNSKNTLYLQMNSLRAEDTAVYYCARDAGYGDNWGQGTLVTVSS
VL: QSALTQPPSVSVSPGQTASITCSGDKLGEKYASWYQQKAGQSPVMVIYQDRKRPSGIPERFSGSNSGNTATLTISGTQAMDEADYYCQAWDTRAVVFGGGTKLTVLG
